# Laboratory results: the nanobody polyreactivity screen of Harvey et al. (2022)
# Test: yeast display, Sf9 membrane polyspecificity reagent, FACS + sequencing; frameworks hold sequencing errors
# In short: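 Synthetic nanobody libraries on Saccharomyces cerevisiae BJ5465 were galactose-induced for 36–48 hours, stained 1 hour at 4 °C with 10% biotinylated, detergent-solubilized Sf9 membrane reagent and enriched on streptavidin microbeads. FACS then separated cells into low and high (top ~1%) gates by anti-HA (expression) and streptavidin (reagent binding) fluorescence. Genes were colony-PCR amplified, MiSeq 2 × 250 sequenced and CDR-length filtered. A clone's polyreactivity label is that of its gate of origin.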
row,Sequence,polyreactivity (PSR sort gate)
1,QVQLVESGGGLVQAGGSLRLSCAASGIILPQNAMGWYRQAPGKERELVAAISKSGGRTYYADSVKGRFTISRDNAKNTVYLQMNSLKPEDTAVYYCAAVVRRAPEFDYWGQGTQVTVSS,high polyreactivity
2,QVQLVESGGGLVQAGGSLRLSCAASGIILSAYAMGWYRQAPGKERELVARISRSGGRTYYADSVKGRFTISRDNAKNTVYLQMNSLKPEDTAVYYCAADYTYGFGLYFGYGYWRQGTQVTVSS,high polyreactivity
3,QVQLVESGGGLVQAGGSLRLSCAASGIILSENAKGWYRQAPGKERELVAAITSSGSTNYADSVKGRLTISRDNAKNTVYLQMNSLKPVDTAVYYCATQNLYVSWYYAWYGYGYWGQGTQVNVSS,low polyreactivity
4,QVQLVESGGGLVQAGGSLRLSCAASGIILSPYAMGWYRQAPGKERELVAAISRSGGSTYYADSVKGRFTISRDNAKNTVYLQMNSLKPEDTAVYYCAAEYYGYWEYDYWGQGTQVTVSS,high polyreactivity
5,QVQLVESGGGLVQAGGSLRLSCAASGIILTPNAMGWYRQAPGTERELVAAIDWRDGITYYADSVKGRFTISRDNAKNTVYLQMNSLKPEDTAVYYCAATFSRGYDYWGQGTQVTVSS,high polyreactivity
6,QVQLVESGGGLVQAGGSLRLSCAASGIILTYYAMGWYRPAAGHERELVARISSSGGRTYYADSVKARFTISRDNAKNTLYLQMNSQKPEETAVYYCAAAIVSSGRNDYWGHGTQVTVSS,high polyreactivity
7,QVQLVESGGGLVQAGGSLRLSCAASGIILYPYAMGWYRQAPGKERELVAAISWSGGSTYYADSVKGRFTISRDNAKNTVYLQMNSLKPEDTAVYYCNARYYGPSWNSYDYWGQGTQVTVSS,high polyreactivity
8,QVQLVESGGGLVQAGGSLRLSCAASGIILYRNGMGWYRQAPGKERELVAAISWSTGSTYYADSVKGRFTISRDNAKYTVYLQMNSLKPEDTAVYYCATDYVGYSFGMYYWGQGTQVTVSS,low polyreactivity
9,QVQLVESGGGLVQAGGSLRLSCAASGIILYYYAMGWYRQAPGKERELVAAISSGGNTYYADSVKGRFTISRDNAKNTVYLQMYSLKPEDTAVYYCAAVTVIGGEYDYWGQGTQVTVSS,low polyreactivity
10,QVQLVESGGGLVQAGGSLRLSCAASGIISSFYAMGWYRQAPGKERELVAAINWSGDSTYYADSVKGRFTISRDNAKNTVYLQMNSLKPEDTAVYYCAADYYGFYDEHDYWGQGTKVTVSS,low polyreactivity
11,QVQLVESGGGLVQAGGSLRLSCAASGIIYDAYAMGWYRQAPGKERELVAAISSGGSTYYADSVKGRFTISRDNAKNTVSLQMNSLKPEDTAVYYCAAETEYPSWYDYWGQGTQVTVSS,low polyreactivity
12,QVQLVESGGGLVQAGGSLRLSCAASGIIYHFNDMGWYRQAPGQERELVASIDSTGSTNYADSVKGRFTLSRDNAKNTVYLQMNSLKPEDTAVYYCAVLNHRVDSVLTRYYYWGQGTQVTVSS,low polyreactivity
13,QVQLVESGGGLVQAGGSLRLSCAASGIIYVYAMGWYRQAPGKERELVAAITWSGGSTYYADSVKGRFTISRDNAKNTVYLQMNTLKPEDTAVYYCARGQGGEYDLDYDYWGQGTQVTVSS,low polyreactivity
14,QVQLVESGGGLVQAGGSLRLSCAASGIIYYANVMGWYRQAPGKERELVAGISRNGGRTYYADSVKGRFTISRDNAKNTVYLQMNSLKPEDTAVYYCAARGSYTSIFDYWGQGTQVTVSS,high polyreactivity
15,QVQLVESGGGLVQAGGSLRLSCAASGINFFGYAMGWYRQAPGKERELVAGISRSTGRTYYADSVKGRFTISRDNAKNTVYLQMNSLKQEDTSVYYCAARATRSLSRSMDYWGQGTQVTVSS,high polyreactivity
16,QVQLVESGGGLVQAGGSLRLSCAASGINFPGYAMGWYRQAPGKERELVAVIRKSGTSTYYADSVKGRFTISRDNAKNTVYLQMNSLKPEDTAVYYCAAGGPSTLDDYWGQGTQVTVSS,low polyreactivity
17,QVQLVESGGGLVQAGGSLRLSCAASGINFQNYAMGLYRQAPGKEREFVASISFSGASTYYADSVKGRFTISRDKAKNTVYLQMNSLKPDDTAVYYCAARYLYGPKYYYWGQGTQVTVSS,high polyreactivity
18,QVQLVESGGGLVQAGGSLRLSCAASGINNSVNDMGLYRQAPGKERELVAAISSGDSTNYADSVKGRFTISRDNAKNTVYLQMNSLKPEDTAGYYCAALEGCLTGWQTYDYWGQGTQVTVSS,low polyreactivity
19,QVQLVESGGGLVQAGGSLRLSCAASGINYVRYAMGWYRQAPGKEREFVAAITRNGGRTYYADSVKGRFTISRDNAKNTVYLQMNSLKPEDTAVYYCAAYPAYPGTLEMDYWGQGTQVTVSS,high polyreactivity
20,QVQLVESGGGLVQAGGSLRLSCAASGISFEYYAMGWYRQAPGKERELVAAITRGGSTYYADSVKGRFTISRDNAKNTVYLQMNSLKPEDTAVYYCAADRYYYEYDYWGQGTQVTVSS,low polyreactivity
21,QVQLVESGGGLVQAGGSLRLSCAASGITCSYYTIGWYRQATGKEWELVATISQSSGSTYYADSVKGRFTISRDNAKNTVYLQINTLKPEDTAVYYCKARRDYEWVSWNVVDDYWGQGTQVTVSS,high polyreactivity
22,QVQLVESGGGLVQAGGSLRLSCAASGITFAEYAMGWYRPAPGKERELVAAINGGGGSTYYADSVKGRFTISRDYAKNTVYFQMNSLKPEDTAVYYCAADGYPGDYDYWGQGTQVTVSS,high polyreactivity

row,Sequence,polyreactivity (PSR sort gate)
1,QVQLVESGGGLVQAGGSLRLSCAASGITFAFYDMGWYRQAPGKERELVAAISYSGGGTYYADSVKGRFTISRDNAKNTVYLQMNSLKPEDTAVYYCAADPKTHALFGEDYWGQGTQVTVSS,low polyreactivity
2,QVQLVESGGGLVQAGGSLRLSCAASGITFAGYAMGSDREAPGTERELVAAITRRGGITYYADSVKGRFTISRDNAKNTVYLQMNSLKPEDTAVYYCNAGRRVSTYGYWGQGTQVTVSS,high polyreactivity
3,QVQLVESGGGLVQAGGSLRLSCAASGITFALNAMGWYRQAPGKERELVAAIRWGGDSTYYADSVKGRFTISRDNAKNTVYLQMNSLKPEDTAVYYCAAYGPRTLDYWGQGTQVTVSS,high polyreactivity
4,QVQLVESGGGLVQAGGSLRLSCAASGITFALYAMGWYRKAPGKERELVAAISYSGGRTYYADSVKGRFTISRDTAKNTVYLQMNSLKPEDTAVYYCAAGGSGSGPYGYGYWGQGTQVTVSS,high polyreactivity
5,QVQLVESGGGLVQAGGSLRLSCAASGITFASNPMGWYRQAPGKERELVAAITRGDNTYYADSVKGRFTISRDNAKNTVYLQMNSLKPEDTAVYYCATEGYQIQYEHDYWGQGTQVTVSS,low polyreactivity
6,QVQLVESGGGLVQAGGSLRLSCAASGITFASYAMGWYRQAPGKERELVAVITRSTGRTYYADSVKGRFTISRDNAKNTVYLQMNSLKPEDTAVYYCAAGYITWYDYWGQGTQVTVSS,high polyreactivity
7,QVQLVESGGGLVQAGGSLRLSCAASGITFASYVMGWYRQAPGKERELVAAISSSGGSTYYADSVKGRFTISRDNAKNTVYLQMNSLKPEDTAVYYCKARLYYSWRSTYDYWGQGTQVTVSS,high polyreactivity
8,QVQLVESGGGLVQAGGSLRLSCAASGITFATNAMGWYRQAPGKERELVAGITSGGSTYYADSVKGRFTISRDNAKNTVYLQMNSLKPEDTAVYYCAKRYHYWYGTGYDYWGQGTQVTVSS,low polyreactivity
9,QVQLVESGGGLVQAGGSLRLSCAASGITFATYAMGWYRQAPGKERELVAAISGGGGRTYYADSLKGRFTISRDNAKNTVYLQMNSLKPEDTAVYYCATAQRSSQFYHWGQGTQVTVSS,high polyreactivity
10,QVQLVESGGGLVQAGGSLRLSCAASGITFAVKAMGWSRQAPGKERELVAAISRSAGSTYYADSVKGRFTISRDNAKNTVYLQMNSLKPEDTAVYYCATALRYARSRNRFYYWGQGTQVTVST,high polyreactivity
11,QVQLVESGGGLVQAGGSLRLSCAASGITFAVYAMGWYRQAPGKERELVAAITRGGGSTYYADSVKGRFSISRDNAKNTVYLQMNSLKPEHTAVYYCNADSIPEGNSRYSHFDYWGQGTQVTVSS,low polyreactivity
12,QVQLVESGGGLVQAGGSLRLSCAASGITFAYKAMGWYRQAPGTERELVARITSGGRTYYSDSVKARFTISRDNAMNTVYLQMNSLKPEDTAVYYCNAKEGSRYRKYDYWGQGTQVTVSS,low polyreactivity
13,QVQLVESGGGLVQAGGSLRLSCAASGITFAYYAMGWSRQAPGKERELVAAIRWSGGDTYYADSVKGRFTISRDNAKNTVYLQMNSLKPEDTAVYYCAADTTWGYDYWGQGTQVTVSS,low polyreactivity
14,QVQLVESGGGLVQAGGSLRLSCAASGITFAYYAMGWYRQAPGKERELVAAITRGGSTFYADSVKGRFTISRDNAKNTVYLQMNSLKPEDTAVYYCAKRYGTNTRYYHPYRYDYWGQGTQVTVSS,high polyreactivity
15,QVQLVESGGGLVQAGGSLRLSCAASGITFAYYVMGWYRQAPGKERELVAAINGSGGSTYYADSVKGRFTISRDTAKNTVYLQMNSLKPEDTAVYYCAAEQYVYRRYPEPDWYAYNYWGQGTQVTVSS,high polyreactivity
16,QVQLVESGGGLVQAGGSLRLSCAASGITFCYYGMGRYRQAPGKERELVAAISSGGRTYYADSVKGRFTISRDNAKNTVYLQMNSLNPEDSAVYYCADRTKYIFVYQGVYWGQGTQVTVSS,high polyreactivity
17,QVQLVESGGGLVQAGGSLRLSCAASGITFDANTMGWYRQAPGKERELVAVITDTGSTNYADSVKGRFTISRDNAKNTVYLQMNSLKPEDTAVYYCNADAEPSSGTSANNDYWGQGTQVTVSS,low polyreactivity
18,QVQLVESGGGLVQAGGSLRLSCAASGITFDDYDMGWYRQAPGKEREFVAAISFSGSSTYYADSVKGRFTISRDNAKNTVYLQMNSLKPEDTAVYYCNADYVYSGGRYYGKDYWFDYWGQGTQVTVSS,low polyreactivity
19,QVQLVESGGGLVQAGGSLRLSCAASGITFDEYAMGWYRQAPGKERELVAVISRSGGTTYYADSVKGRFTISRDNAKNTVYLQMNSLKPEDTAVYYCNARRWGPPGYYWGQGTQVTVSS,high polyreactivity
20,QVQLVESGGGLVQAGGSLRLSCAASGITFDGNAMGWYRQEPGKERELVAAIDFSGGSTTYADSVKGRFTISRDNAKNTVYLQMNSLKPEDTAVYYCAAVDWYGFLAVEEYYWGQGTQVTVSS,high polyreactivity
21,QVQLVESGGGLVQAGGSLRLSCAASGITFDIYNMGWYRQAPGKERELVAAISYSGGSTYYADSVKGRFTISRDNAKNTVYLQMYSLKPEDTAVYYCAAYEGTYFTEVDYWGQGTQVTVSS,low polyreactivity
